In patent publication US20230295338A1 (published 2023):

Tests used:
[1] = biological target: T1, human CEACAM1-Fc fusion protein (UniProt P13688 35-428); assay: BLI
T1 chain: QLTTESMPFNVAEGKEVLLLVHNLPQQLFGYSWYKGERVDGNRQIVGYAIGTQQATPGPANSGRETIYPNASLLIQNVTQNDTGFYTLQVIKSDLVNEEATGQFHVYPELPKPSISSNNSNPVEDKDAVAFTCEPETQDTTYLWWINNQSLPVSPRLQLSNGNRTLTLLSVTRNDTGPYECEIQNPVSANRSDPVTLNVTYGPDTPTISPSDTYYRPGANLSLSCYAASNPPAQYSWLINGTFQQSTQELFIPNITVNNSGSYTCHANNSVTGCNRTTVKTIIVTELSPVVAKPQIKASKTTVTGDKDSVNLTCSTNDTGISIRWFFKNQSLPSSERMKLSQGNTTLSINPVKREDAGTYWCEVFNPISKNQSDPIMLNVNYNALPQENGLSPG

[2] = biological target: T1, human CEACAM1-Fc fusion protein; assay: ELISA
CC1-N-Fc = assay: ELISA
recHopQ = recHopQ (Helicobacter pylori); assay: BLI

B1: CC1/3/5-Sab (antibody, V domains shown)
VH: EVQLQQSGPELVKPGTSVKMSCKASGYTFTTYVMHWVQQKPGQGLDWIGFFNPYNDGTKYNEKFKGKATLTSDKSSSTAYMELSSLTSEDSAVYYCARWAYDGSYAYWGQGTTLTVSS
VL: DIQMTQSSSYLSVFLGGRVTITCKASDHINNWLAWYQQKPGNAPRLLISGATSLETGVPSRFSGSGSGKDYTLSIISLQTEDVATYYCQQYWRTPFTFGSGTKLEIK
[1]
  Kd: 54 nM
[2]
  IC50: 0.146 nM

B2: mAb CC1/3/5-Sab (antibody, V domains shown)
VH: B1 VH
VL: B1 VL
CC1-N-Fc
  IC50: 0.107 nM

B3: CEACAM1-Fc (Fc fusion)
chain: T1 chain
recHopQ
  Kd: 183 nM
